Starred links: 1 amine or outer side, 2 acyl side, 3 side chain; linkers in the order of their positions; H or OH if unused. Non-standard residues stand in square brackets, D forms with d. Groups on a side chain read outwards from the residue. No end group written: not given here. *: point of attachment. C18 diacid = O=C(O)CCCCCCCCCCCCCCCCC(=O)*; γGlu = O=C(O)[C@H](CCC(=O)[*:2])N[*:1]; Palmitoyl = CCCCCCCCCCCCCCCC(=O)*; AEEA = NCCOCCOCC(=O)O; Aib = CC(C)(N)C(=O)O
B1: SEQ ID NO: 34 (peptide)
peptide: FTLSLDVPTKIK([AEEA-AEEA-γGlu-C18 diacid])QKLLKQEKQKKQRQKAKTNKQILEQV-NH2
modifications: N-terminus assumed
SMILES: CC[C@H](C)[C@H](NC(=O)[C@H](CCC(N)=O)NC(=O)[C@H](CCCCN)NC(=O)[C@H](CC(N)=O)NC(=O)[C@@H](NC(=O)[C@H](CCCCN)NC(=O)[C@H](C)NC(=O)[C@H](CCCCN)NC(=O)[C@H](CCC(N)=O)NC(=O)[C@H](CCCNC(=N)N)NC(=O)[C@H](CCC(N)=O)NC(=O)[C@H](CCCCN)NC(=O)[C@H](CCCCN)NC(=O)[C@H](CCC(N)=O)NC(=O)[C@H](CCCCN)NC(=O)[C@H](CCC(=O)O)NC(=O)[C@H](CCC(N)=O)NC(=O)[C@H](CCCCN)NC(=O)[C@H](CC(C)C)NC(=O)[C@H](CC(C)C)NC(=O)[C@H](CCCCN)NC(=O)[C@H](CCC(N)=O)NC(=O)[C@H](CCCCNC(=O)COCCOCCNC(=O)COCCOCCNC(=O)CC[C@H](NC(=O)CCCCCCCCCCCCCCCCC(=O)O)C(=O)O)NC(=O)[C@@H](NC(=O)[C@H](CCCCN)NC(=O)[C@@H](NC(=O)[C@@H]1CCCN1C(=O)[C@@H](NC(=O)[C@H](CC(=O)O)NC(=O)[C@H](CC(C)C)NC(=O)[C@H](CO)NC(=O)[C@H](CC(C)C)NC(=O)[C@@H](NC(=O)[C@@H](N)Cc1ccccc1)[C@@H](C)O)C(C)C)[C@@H](C)O)[C@@H](C)CC)[C@@H](C)O)C(=O)N[C@@H](CC(C)C)C(=O)N[C@@H](CCC(=O)O)C(=O)N[C@@H](CCC(N)=O)C(=O)N[C@H](C(N)=O)C(C)C
B2: SEQ ID NO: 1 (peptide)
peptide: IVLSLDVPIGLK([γGlu-Palmitoyl])QILLEQEKQEKEKQQAETNAQILAQV-NH2
modifications: N-terminus assumed
SMILES: CCCCCCCCCCCCCCCC(=O)N[C@@H](CCC(=O)NCCCC[C@H](NC(=O)[C@H](CC(C)C)NC(=O)CNC(=O)[C@@H](NC(=O)[C@@H]1CCCN1C(=O)[C@@H](NC(=O)[C@H](CC(=O)O)NC(=O)[C@H](CC(C)C)NC(=O)[C@H](CO)NC(=O)[C@H](CC(C)C)NC(=O)[C@@H](NC(=O)[C@@H](N)[C@@H](C)CC)C(C)C)C(C)C)[C@@H](C)CC)C(=O)N[C@@H](CCC(N)=O)C(=O)N[C@H](C(=O)N[C@@H](CC(C)C)C(=O)N[C@@H](CC(C)C)C(=O)N[C@@H](CCC(=O)O)C(=O)N[C@@H](CCC(N)=O)C(=O)N[C@@H](CCC(=O)O)C(=O)N[C@@H](CCCCN)C(=O)N[C@@H](CCC(N)=O)C(=O)N[C@@H](CCC(=O)O)C(=O)N[C@@H](CCCCN)C(=O)N[C@@H](CCC(=O)O)C(=O)N[C@@H](CCCCN)C(=O)N[C@@H](CCC(N)=O)C(=O)N[C@@H](CCC(N)=O)C(=O)N[C@@H](C)C(=O)N[C@@H](CCC(=O)O)C(=O)N[C@H](C(=O)N[C@@H](CC(N)=O)C(=O)N[C@@H](C)C(=O)N[C@@H](CCC(N)=O)C(=O)N[C@H](C(=O)N[C@@H](CC(C)C)C(=O)N[C@@H](C)C(=O)N[C@@H](CCC(N)=O)C(=O)N[C@H](C(N)=O)C(C)C)[C@@H](C)CC)[C@@H](C)O)[C@@H](C)CC)C(=O)O
B3: SEQ ID NO: 33 (peptide)
peptide: IVLSLD[dV]PTKLK([γGlu-Palmitoyl])QKLLKQERQRKEREQAEKNTRILERV-NH2
modifications: N-terminus assumed
SMILES: CCCCCCCCCCCCCCCC(=O)N[C@@H](CCC(=O)NCCCC[C@H](NC(=O)[C@H](CC(C)C)NC(=O)[C@H](CCCCN)NC(=O)[C@@H](NC(=O)[C@@H]1CCCN1C(=O)[C@H](NC(=O)[C@H](CC(=O)O)NC(=O)[C@H](CC(C)C)NC(=O)[C@H](CO)NC(=O)[C@H](CC(C)C)NC(=O)[C@@H](NC(=O)[C@@H](N)[C@@H](C)CC)C(C)C)C(C)C)[C@@H](C)O)C(=O)N[C@@H](CCC(N)=O)C(=O)N[C@@H](CCCCN)C(=O)N[C@@H](CC(C)C)C(=O)N[C@@H](CC(C)C)C(=O)N[C@@H](CCCCN)C(=O)N[C@@H](CCC(N)=O)C(=O)N[C@@H](CCC(=O)O)C(=O)N[C@@H](CCCNC(=N)N)C(=O)N[C@@H](CCC(N)=O)C(=O)N[C@@H](CCCNC(=N)N)C(=O)N[C@@H](CCCCN)C(=O)N[C@@H](CCC(=O)O)C(=O)N[C@@H](CCCNC(=N)N)C(=O)N[C@@H](CCC(=O)O)C(=O)N[C@@H](CCC(N)=O)C(=O)N[C@@H](C)C(=O)N[C@@H](CCC(=O)O)C(=O)N[C@@H](CCCCN)C(=O)N[C@@H](CC(N)=O)C(=O)N[C@H](C(=O)N[C@@H](CCCNC(=N)N)C(=O)N[C@H](C(=O)N[C@@H](CC(C)C)C(=O)N[C@@H](CCC(=O)O)C(=O)N[C@@H](CCCNC(=N)N)C(=O)N[C@H](C(N)=O)C(C)C)[C@@H](C)CC)[C@@H](C)O)C(=O)O
B4: SEQ ID NO: 37 (peptide)
peptide: IVLSLDVPTKLK([AEEA-AEEA-γGlu-C18 diacid])QKLLKQERQRKERQQAETNKRILERV-NH2
modifications: N-terminus assumed
SMILES: CC[C@H](C)[C@H](N)C(=O)N[C@H](C(=O)N[C@@H](CC(C)C)C(=O)N[C@@H](CO)C(=O)N[C@@H](CC(C)C)C(=O)N[C@@H](CC(=O)O)C(=O)N[C@H](C(=O)N1CCC[C@H]1C(=O)N[C@H](C(=O)N[C@@H](CCCCN)C(=O)N[C@@H](CC(C)C)C(=O)N[C@@H](CCCCNC(=O)COCCOCCNC(=O)COCCOCCNC(=O)CC[C@H](NC(=O)CCCCCCCCCCCCCCCCC(=O)O)C(=O)O)C(=O)N[C@@H](CCC(N)=O)C(=O)N[C@@H](CCCCN)C(=O)N[C@@H](CC(C)C)C(=O)N[C@@H](CC(C)C)C(=O)N[C@@H](CCCCN)C(=O)N[C@@H](CCC(N)=O)C(=O)N[C@@H](CCC(=O)O)C(=O)N[C@@H](CCCNC(=N)N)C(=O)N[C@@H](CCC(N)=O)C(=O)N[C@@H](CCCNC(=N)N)C(=O)N[C@@H](CCCCN)C(=O)N[C@@H](CCC(=O)O)C(=O)N[C@@H](CCCNC(=N)N)C(=O)N[C@@H](CCC(N)=O)C(=O)N[C@@H](CCC(N)=O)C(=O)N[C@@H](C)C(=O)N[C@@H](CCC(=O)O)C(=O)N[C@H](C(=O)N[C@@H](CC(N)=O)C(=O)N[C@@H](CCCCN)C(=O)N[C@@H](CCCNC(=N)N)C(=O)N[C@H](C(=O)N[C@@H](CC(C)C)C(=O)N[C@@H](CCC(=O)O)C(=O)N[C@@H](CCCNC(=N)N)C(=O)N[C@H](C(N)=O)C(C)C)[C@@H](C)CC)[C@@H](C)O)[C@@H](C)O)C(C)C)C(C)C
B5: SEQ ID NO: 36 (peptide)
peptide: IVLSLD[dV]PTKLK([AEEA-AEEA-γGlu-C18 diacid])QKLLKQERQRK[Aib]REQAEKNKRILERV-NH2
modifications: N-terminus assumed
SMILES: CC[C@H](C)[C@H](N)C(=O)N[C@H](C(=O)N[C@@H](CC(C)C)C(=O)N[C@@H](CO)C(=O)N[C@@H](CC(C)C)C(=O)N[C@@H](CC(=O)O)C(=O)N[C@@H](C(=O)N1CCC[C@H]1C(=O)N[C@H](C(=O)N[C@@H](CCCCN)C(=O)N[C@@H](CC(C)C)C(=O)N[C@@H](CCCCNC(=O)COCCOCCNC(=O)COCCOCCNC(=O)CC[C@H](NC(=O)CCCCCCCCCCCCCCCCC(=O)O)C(=O)O)C(=O)N[C@@H](CCC(N)=O)C(=O)N[C@@H](CCCCN)C(=O)N[C@@H](CC(C)C)C(=O)N[C@@H](CC(C)C)C(=O)N[C@@H](CCCCN)C(=O)N[C@@H](CCC(N)=O)C(=O)N[C@@H](CCC(=O)O)C(=O)N[C@@H](CCCNC(=N)N)C(=O)N[C@@H](CCC(N)=O)C(=O)N[C@@H](CCCNC(=N)N)C(=O)N[C@@H](CCCCN)C(=O)NC(C)(C)C(=O)N[C@@H](CCCNC(=N)N)C(=O)N[C@@H](CCC(=O)O)C(=O)N[C@@H](CCC(N)=O)C(=O)N[C@@H](C)C(=O)N[C@@H](CCC(=O)O)C(=O)N[C@@H](CCCCN)C(=O)N[C@@H](CC(N)=O)C(=O)N[C@@H](CCCCN)C(=O)N[C@@H](CCCNC(=N)N)C(=O)N[C@H](C(=O)N[C@@H](CC(C)C)C(=O)N[C@@H](CCC(=O)O)C(=O)N[C@@H](CCCNC(=N)N)C(=O)N[C@H](C(N)=O)C(C)C)[C@@H](C)CC)[C@@H](C)O)C(C)C)C(C)C
B6: SEQ ID NO: 35 (peptide)
peptide: IVLSLDVPIKLK([AEEA-AEEA-γGlu-C18 diacid])KILLEQEKQKKQREQAETNKQILAQV-NH2
modifications: N-terminus assumed
SMILES: CC[C@H](C)[C@H](N)C(=O)N[C@H](C(=O)N[C@@H](CC(C)C)C(=O)N[C@@H](CO)C(=O)N[C@@H](CC(C)C)C(=O)N[C@@H](CC(=O)O)C(=O)N[C@H](C(=O)N1CCC[C@H]1C(=O)N[C@H](C(=O)N[C@@H](CCCCN)C(=O)N[C@@H](CC(C)C)C(=O)N[C@@H](CCCCNC(=O)COCCOCCNC(=O)COCCOCCNC(=O)CC[C@H](NC(=O)CCCCCCCCCCCCCCCCC(=O)O)C(=O)O)C(=O)N[C@@H](CCCCN)C(=O)N[C@H](C(=O)N[C@@H](CC(C)C)C(=O)N[C@@H](CC(C)C)C(=O)N[C@@H](CCC(=O)O)C(=O)N[C@@H](CCC(N)=O)C(=O)N[C@@H](CCC(=O)O)C(=O)N[C@@H](CCCCN)C(=O)N[C@@H](CCC(N)=O)C(=O)N[C@@H](CCCCN)C(=O)N[C@@H](CCCCN)C(=O)N[C@@H](CCC(N)=O)C(=O)N[C@@H](CCCNC(=N)N)C(=O)N[C@@H](CCC(=O)O)C(=O)N[C@@H](CCC(N)=O)C(=O)N[C@@H](C)C(=O)N[C@@H](CCC(=O)O)C(=O)N[C@H](C(=O)N[C@@H](CC(N)=O)C(=O)N[C@@H](CCCCN)C(=O)N[C@@H](CCC(N)=O)C(=O)N[C@H](C(=O)N[C@@H](CC(C)C)C(=O)N[C@@H](C)C(=O)N[C@@H](CCC(N)=O)C(=O)N[C@H](C(N)=O)C(C)C)[C@@H](C)CC)[C@@H](C)O)[C@@H](C)CC)[C@@H](C)CC)C(C)C)C(C)C

Biological target: human corticotropin-releasing factor 2α (CRF2 α receptor) (human), Q13324
Sequence (Q13324 20-411): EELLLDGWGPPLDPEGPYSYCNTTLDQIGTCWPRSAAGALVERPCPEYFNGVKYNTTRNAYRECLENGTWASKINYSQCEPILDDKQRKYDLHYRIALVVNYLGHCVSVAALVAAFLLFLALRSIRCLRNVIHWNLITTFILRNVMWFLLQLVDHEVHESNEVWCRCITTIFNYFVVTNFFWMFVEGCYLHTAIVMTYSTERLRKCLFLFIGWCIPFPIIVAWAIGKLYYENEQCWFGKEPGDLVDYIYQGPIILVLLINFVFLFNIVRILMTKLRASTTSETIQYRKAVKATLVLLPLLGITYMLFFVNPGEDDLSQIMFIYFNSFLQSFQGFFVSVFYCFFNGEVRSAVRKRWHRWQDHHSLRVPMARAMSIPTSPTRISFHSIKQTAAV
Assay: cell-based or functional assay

Row | Binder | EC50 [nM], 0% HSA [nM] | EC50 [nM], 0.1% HSA [nM]
1 | B1 | 6.88 | 
2 | B2 | 0.01 | 
3 | B3 | 0.2 | 
4 | B4 | 1.6 | 
5 | B5 | 1.45 | 
6 | B6 | 0.24 | 3.82

— patent US12679878B2, “CRF2 receptor agonists and their use in therapy” (SANOFI, priority 2020, dated 2026)
